The text below walks through data of the Human Domainome abundance scans (Beltran et al. 2025).

± gives the uncertainty stated by the source.

The labels stand for the following.
B1: RUN and FYVE domain-containing protein 1, residues 639 to 698; numbered along this chain, Q96T51 (parent)
chain: WLKDDEATHCRQCEKEFSISRRKHHCRNCGHIFCNTCSSNELALPSYPKPVRVCDSCHTL

Variants of B1 are the subject of this data set. As to the kind of experiment: abundance fitness (aPCA) (normalised: wild type 0, dead -1); higher = more abundant; growth selection in yeast, the domain comes from the species named. Conditions: Homo sapiens.
Take WLKDDEATHCRQCEKEFSMSRRKHHCRNCGHIFCNTCSSNELALPSYPKPVRVCDSCHTL [I19M]: the abundance fitness was -0.006 ± 0.061.

For WLKDDEATHCRQCEKEFSYSRRKHHCRNCGHIFCNTCSSNELALPSYPKPVRVCDSCHTL [I19Y], the abundance fitness is -0.341 ± 0.055. For WLKDDEATHCRQCEKEFSDSRRKHHCRNCGHIFCNTCSSNELALPSYPKPVRVCDSCHTL [I19D] the value was -0.014 ± 0.058; for WLKDDEATHCRQCEKEFSVSRRKHHCRNCGHIFCNTCSSNELALPSYPKPVRVCDSCHTL [I19V], -0.102 ± 0.045. In the case of WLKDDEATHCRQCEKEFSNSRRKHHCRNCGHIFCNTCSSNELALPSYPKPVRVCDSCHTL [I19N], the abundance fitness is -0.001 ± 0.052.

Consider WLKDDEATHCRQCEKEFSLSRRKHHCRNCGHIFCNTCSSNELALPSYPKPVRVCDSCHTL [I19L], for which the abundance fitness was -0.038 ± 0.038. Then WLKDDEATHCRQCEKEFSWSRRKHHCRNCGHIFCNTCSSNELALPSYPKPVRVCDSCHTL [I19W], with -0.846 ± 0.14; and WLKDDEATHCRQCEKEFSRSRRKHHCRNCGHIFCNTCSSNELALPSYPKPVRVCDSCHTL [I19R], with -0.065 ± 0.045; and WLKDDEATHCRQCEKEFSESRRKHHCRNCGHIFCNTCSSNELALPSYPKPVRVCDSCHTL [I19E], with 0.228 ± 0.067. For WLKDDEATHCRQCESEFSISRRKHHCRNCGHIFCNTCSSNELALPSYPKPVRVCDSCHTL [K15S] the value was -0.098 ± 0.034. On to WLKDDEATHCRQCEYEFSISRRKHHCRNCGHIFCNTCSSNELALPSYPKPVRVCDSCHTL [K15Y], for which the abundance fitness is -0.191 ± 0.062. In the case of WLKDDEATHCRQCETEFSISRRKHHCRNCGHIFCNTCSSNELALPSYPKPVRVCDSCHTL [K15T], the abundance fitness is -0.154 ± 0.046. Then WLKDDEATHCRQCEVEFSISRRKHHCRNCGHIFCNTCSSNELALPSYPKPVRVCDSCHTL [K15V], with -0.359 ± 0.048; and WLKDDEATHCRQCEWEFSISRRKHHCRNCGHIFCNTCSSNELALPSYPKPVRVCDSCHTL [K15W], with -0.449 ± 0.049. For WLKDDEATHCRQCEKEFSIFRRKHHCRNCGHIFCNTCSSNELALPSYPKPVRVCDSCHTL [S20F], the abundance fitness is -0.009 ± 0.045. Then WLKDDEATHCRQCEKEFSILRRKHHCRNCGHIFCNTCSSNELALPSYPKPVRVCDSCHTL [S20L], with -0.147 ± 0.035; and WLKDDEATHCRQCEKEFSIARRKHHCRNCGHIFCNTCSSNELALPSYPKPVRVCDSCHTL [S20A], with 0.068 ± 0.035. Take WLKDDEATHCRQCEKEFSIERRKHHCRNCGHIFCNTCSSNELALPSYPKPVRVCDSCHTL [S20E]: the abundance fitness came to 0.197 ± 0.037.

With WLKDDEATHCRQCEKEFSIIRRKHHCRNCGHIFCNTCSSNELALPSYPKPVRVCDSCHTL [S20I], the abundance fitness is 0.028 ± 0.075.

With WLKDDEATHCRQCEKEFSIVRRKHHCRNCGHIFCNTCSSNELALPSYPKPVRVCDSCHTL [S20V], the abundance fitness is -0.031 ± 0.033.

Regarding WLKDDEATHCRQCEKEFSIWRRKHHCRNCGHIFCNTCSSNELALPSYPKPVRVCDSCHTL [S20W], the abundance fitness was 0.005 ± 0.038. Then WLKDDEATHCRQCEKEFSIHRRKHHCRNCGHIFCNTCSSNELALPSYPKPVRVCDSCHTL [S20H], with -0.108 ± 0.096; and WLKDDEATHCRQCEKEFSICRRKHHCRNCGHIFCNTCSSNELALPSYPKPVRVCDSCHTL [S20C], with -0.369 ± 0.059; and WLKDDEATHCRQCEKEFSIPRRKHHCRNCGHIFCNTCSSNELALPSYPKPVRVCDSCHTL [S20P], with -0.061 ± 0.048.

Regarding WLKDDEATHCRQCEKEFSIKRRKHHCRNCGHIFCNTCSSNELALPSYPKPVRVCDSCHTL [S20K], the abundance fitness is -0.018 ± 0.058. On to WLKDDEATHCRQCEKEFSIQRRKHHCRNCGHIFCNTCSSNELALPSYPKPVRVCDSCHTL [S20Q], for which the abundance fitness was 0.138 ± 0.047.

WLKDDEATHCRQCEKEFSIDRRKHHCRNCGHIFCNTCSSNELALPSYPKPVRVCDSCHTL [S20D]: the abundance fitness was found to be 0.13 ± 0.067. For WLKDDEATHCRQCEKEFSITRRKHHCRNCGHIFCNTCSSNELALPSYPKPVRVCDSCHTL [S20T] the value was 0.069 ± 0.041; for WLKDDEATHCRQCEKEFPISRRKHHCRNCGHIFCNTCSSNELALPSYPKPVRVCDSCHTL [S18P], -0.398 ± 0.056; for WLKDDEATHCRQCEKEFQISRRKHHCRNCGHIFCNTCSSNELALPSYPKPVRVCDSCHTL [S18Q], -0.256 ± 0.075. For WLKDDEATHCRQCEKEFKISRRKHHCRNCGHIFCNTCSSNELALPSYPKPVRVCDSCHTL [S18K] the value was -0.087 ± 0.047; for WLKDDEATHCRQCEKEFMISRRKHHCRNCGHIFCNTCSSNELALPSYPKPVRVCDSCHTL [S18M], -0.23 ± 0.054; for WLKDDEATHCRQCEKEFDISRRKHHCRNCGHIFCNTCSSNELALPSYPKPVRVCDSCHTL [S18D], 0.06 ± 0.055. Turning to WLKDDEATHCRQCEKEFYISRRKHHCRNCGHIFCNTCSSNELALPSYPKPVRVCDSCHTL [S18Y], the abundance fitness is -0.501 ± 0.093. For WLKDDEATHCRQCEKEFWISRRKHHCRNCGHIFCNTCSSNELALPSYPKPVRVCDSCHTL [S18W] the value was -0.322 ± 0.048; for WLKDDEATHCRQCEKEFNISRRKHHCRNCGHIFCNTCSSNELALPSYPKPVRVCDSCHTL [S18N], -0.12 ± 0.08; for WLKDDEATHCRQCEKEFCISRRKHHCRNCGHIFCNTCSSNELALPSYPKPVRVCDSCHTL [S18C], 0.007 ± 0.046.

With WLKDDEATHCRQCEKEFHISRRKHHCRNCGHIFCNTCSSNELALPSYPKPVRVCDSCHTL [S18H], the abundance fitness is -0.408 ± 0.11. On to WLKDDEATHCRQCEKEFLISRRKHHCRNCGHIFCNTCSSNELALPSYPKPVRVCDSCHTL [S18L], for which the abundance fitness was -0.423 ± 0.042. Then WLKDDEATHCRQCEKEFIISRRKHHCRNCGHIFCNTCSSNELALPSYPKPVRVCDSCHTL [S18I], with -0.144 ± 0.057; and WLKDDEATHCRQCEKEFGISRRKHHCRNCGHIFCNTCSSNELALPSYPKPVRVCDSCHTL [S18G], with -0.049 ± 0.028. Consider WLKDDEATHCRQCEKEFFISRRKHHCRNCGHIFCNTCSSNELALPSYPKPVRVCDSCHTL [S18F], for which the abundance fitness is -0.352 ± 0.057. For the variant WLKDDEATHCRQCEKEFVISRRKHHCRNCGHIFCNTCSSNELALPSYPKPVRVCDSCHTL [S18V], the abundance fitness is -0.247 ± 0.033.

WLKDDEATHCRQCEKEFAISRRKHHCRNCGHIFCNTCSSNELALPSYPKPVRVCDSCHTL [S18A]: the abundance fitness was -0.33 ± 0.037. For WLKDDEATHCRQCEKEFTISRRKHHCRNCGHIFCNTCSSNELALPSYPKPVRVCDSCHTL [S18T] the value was 0.05 ± 0.047.
